This is an account of results in PMC3153034.

The assay has as its target recombinant Smc04048 cytochrome c from Sinorhizobium meliloti (Sinorhizobium meliloti). The experiment in a line: SEC.

On to “recombinant Smc04048 cytochrome c from Sinorhizobium meliloti (natural protein)”, for which the stoichiometry N was 2.
